Measured values reported in patent US20200085789A1, “USE OF A PROTEASOME INHIBITOR FOR THE TREATMENT OF CENTRAL NERVOUS SYSTEM (CNS) CANCERS” (Celgene International II Sàrl, priority 2017, published 2020).
Like-named read-outs stand apart in the source and are kept apart here.

How the values were obtained:
[1] = Adverse events and dose-limiting toxicity (NCI-CTCAE v 4.03), MRZ ± BEV in recurrent grade IV malignant glioma patients; format: in vivo, human
From the text: An adverse event (AE) is any noxious, unintended, or untoward medical occurrence that may appear or worsen in a subject during the course of a study. […] Any worsening (i.e., any clinically significant adverse change in the frequency or intensity of a pre-existing condition) should be considered an AE.
The severity/intensity of AEs will be graded based upon the subject's symptoms according to the current active minor version of the Common Terminology Criteria for Adverse Events ( ).

[2] = Bevacizumab serum pharmacokinetics, peak and trough (Part 1 Phase 1); format: in vivo, human; conditions: for Cmax D 1: C1D1; for Cmax D 15 / Cmin D 15: C1D15
From the text: The drugs were infused on 28-Day Cycles.

[3] = system: WHO Grade IV malignant glioma; conditions: cited from earlier work
[4] = Day 0, 10 mg/kg dose (Gordon et al., 2001); cited from earlier work
[5] = MRZ 0.7 mg/m^2 + BEV, Cohort 2 (N = 3)
[6] = MRZ 0.8 mg/m^2 + BEV, Cohorts 3 & 4 (N = 27)
[7] = treated with MRZ 0.8 mg/m^2 + BEV (N = 27)
[8] = Heiland (Freiburg, Germany), All Pts
[9] = Heiland (Freiburg, Germany), Methylated
[10] = Heiland (Freiburg, Germany), Unmethylated
[11] = Wick (EORTC 26101 P2), Methylated
[12] = Wick (EORTC 26101 P2), Unmethylated

bevacizumab [reference compound]
Grade ≥3 Ataxia related to the labelled drug, patients [1, 5]: 0
Grade ≥3 Confusional State related to the labelled drug, patients [1, 5]: 0
Grade ≥3 Delusion related to the labelled drug, patients [1, 5]: 0
Grade ≥3 Dyspnea related to the labelled drug, patients [1, 5]: 0
Grade ≥3 Embolism related to the labelled drug, patients [1, 5]: 0
Grade ≥3 Fall related to the labelled drug, patients [1, 5]: 0
Grade ≥3 Fatigue related to the labelled drug, patients [1, 5]: 0
Grade ≥3 Hallucination related to the labelled drug, patients [1, 5]: 0
Grade ≥3 Headache related to the labelled drug, patients [1, 5]: 0
Grade ≥3 Hypertension related to the labelled drug, patients [1, 5]: 1
Grade ≥3 Hyponatremia related to the labelled drug, patients [1, 5]: 0
Grade ≥3 Insomnia related to the labelled drug, patients [1, 5]: 0
Grade ≥3 Intracranial Hemorrhage related to the labelled drug, patients [1, 5]: 0
Grade ≥3 Optic Nerve Disorder related to the labelled drug, patients [1, 5]: 0
Grade ≥3 Proteinuria related to the labelled drug, patients [1, 5]: 1
Grade ≥3 Ataxia related to the labelled drug, patients [1, 6]: 0
Grade ≥3 Confusional State related to the labelled drug, patients [1, 6]: 0
Grade ≥3 Delusion related to the labelled drug, patients [1, 6]: 0
Grade ≥3 Dyspnea related to the labelled drug, patients [1, 6]: 1
Grade ≥3 Embolism related to the labelled drug, patients [1, 6]: 1
Grade ≥3 Fall related to the labelled drug, patients [1, 6]: 0
Grade ≥3 Fatigue related to the labelled drug, patients [1, 6]: 1
Grade ≥3 Hallucination related to the labelled drug, patients [1, 6]: 0
Grade ≥3 Headache related to the labelled drug, patients [1, 6]: 1
Grade ≥3 Hypertension related to the labelled drug, patients [1, 6]: 5
Grade ≥3 Hyponatremia related to the labelled drug, patients [1, 6]: 0
Grade ≥3 Insomnia related to the labelled drug, patients [1, 6]: 0
Grade ≥3 Intracranial Hemorrhage related to the labelled drug, patients [1, 6]: 1
Grade ≥3 Optic Nerve Disorder related to the labelled drug, patients [1, 6]: 1
Grade ≥3 Proteinuria related to the labelled drug, patients [1, 6]: 0
Anaemia: # Patients, AE related to the labelled drug(s) ([1]; pts on MRZ+BEV): 0
Anxiety: # Patients, AE related to the labelled drug(s) ([1]; pts on MRZ+BEV): 0
Aphasia: # Patients, AE related to the labelled drug(s) ([1]; pts on MRZ+BEV): 0
Appendicitis Perforated: # Patients, AE related to the labelled drug(s) ([1]; pts on MRZ+BEV): 0
Asthenia: # Patients, AE related to the labelled drug(s) ([1]; pts on MRZ+BEV): 0
Ataxia: # Patients, AE related to the labelled drug(s) ([1]; pts on MRZ+BEV): 0
Confusional State: # Patients, AE related to the labelled drug(s) ([1]; pts on MRZ+BEV): 0
Constipation: # Patients, AE related to the labelled drug(s) ([1]; pts on MRZ+BEV): 0
Convulsion: # Patients, AE related to the labelled drug(s) ([1]; pts on MRZ+BEV): 0
Delusion: # Patients, AE related to the labelled drug(s) ([1]; pts on MRZ+BEV): 0
Depressed Level of Consciousness: # Patients, AE related to the labelled drug(s) ([1]; pts on MRZ+BEV): 0
Diarrhoea: # Patients, AE related to the labelled drug(s) ([1]; pts on MRZ+BEV): 0
Dizziness: # Patients, AE related to the labelled drug(s) ([1]; pts on MRZ+BEV): 0
Dysarthria: # Patients, AE related to the labelled drug(s) ([1]; pts on MRZ+BEV): 0
Dysphagia: # Patients, AE related to the labelled drug(s) ([1]; pts on MRZ+BEV): 0
Dysphonia: # Patients, AE related to the labelled drug(s) ([1]; pts on MRZ+BEV): 10
Dyspnoea: # Patients, AE related to the labelled drug(s) ([1]; pts on MRZ+BEV): 0
Ear Infection: # Patients, AE related to the labelled drug(s) ([1]; pts on MRZ+BEV): 0
Epistaxis: # Patients, AE related to the labelled drug(s) ([1]; pts on MRZ+BEV): 7
Falls: # Patients, AE related to the labelled drug(s) ([1]; pts on MRZ+BEV): 0
Fatigue: # Patients, AE related to the labelled drug(s) ([1]; pts on MRZ+BEV): 0
Fracture of Femur: # Patients, AE related to the labelled drug(s) ([1]; pts on MRZ+BEV): 0
Hallucination: # Patients, AE related to the labelled drug(s) ([1]; pts on MRZ+BEV): 0
Headache: # Patients, AE related to the labelled drug(s) ([1]; pts on MRZ+BEV): 1
Hemiparesis: # Patients, AE related to the labelled drug(s) ([1]; pts on MRZ+BEV): 0
Hyperglycemia: # Patients, AE related to the labelled drug(s) ([1]; pts on MRZ+BEV): 0
Hypertension: # Patients, AE related to the labelled drug(s) ([1]; pts on MRZ+BEV): 13
Hypokalemia: # Patients, AE related to the labelled drug(s) ([1]; pts on MRZ+BEV): 0
Hyponatremia: # Patients, AE related to the labelled drug(s) ([1]; pts on MRZ+BEV): 0
Hypotension: # Patients, AE related to the labelled drug(s) ([1]; pts on MRZ+BEV): 0
Infusion Site Pain: # Patients, AE related to the labelled drug(s) ([1]; pts on MRZ+BEV): 0
Insomnia: # Patients, AE related to the labelled drug(s) ([1]; pts on MRZ+BEV): 1
Lymphocyte Count Decreased: # Patients, AE related to the labelled drug(s) ([1]; pts on MRZ+BEV): 0
Muscular Weakness: # Patients, AE related to the labelled drug(s) ([1]; pts on MRZ+BEV): 0
Nausea: # Patients, AE related to the labelled drug(s) ([1]; pts on MRZ+BEV): 0
Optic Nerve Disorder: # Patients, AE related to the labelled drug(s) ([1]; pts on MRZ+BEV): 1
Pyramidal Tract Syndrome: # Patients, AE related to the labelled drug(s) ([1]; pts on MRZ+BEV): 0
Tumor Metastasis: # Patients, AE related to the labelled drug(s) ([1]; pts on MRZ+BEV): 0
Vision Blurred: # Patients, AE related to the labelled drug(s) ([1]; pts on MRZ+BEV): 0
Vomiting: # Patients, AE related to the labelled drug(s) ([1]; pts on MRZ+BEV): 0
Anaemia related to the labelled drug(s) [1, 7]: (0.0%)
Anaemia related to the labelled drug(s), patients [1, 7]: 0
Ataxia related to the labelled drug(s) [1, 7]: (0.0%)
Ataxia related to the labelled drug(s), patients [1, 7]: 0
Confusional state related to the labelled drug(s) [1, 7]: (3.7%)
Confusional state related to the labelled drug(s), patients [1, 7]: 1
Constipation related to the labelled drug(s) [1, 7]: (3.7%)
Constipation related to the labelled drug(s), patients [1, 7]: 1
Diarrhoea related to the labelled drug(s) [1, 7]: (3.7%)
Diarrhoea related to the labelled drug(s), patients [1, 7]: 1
Dizziness related to the labelled drug(s) [1, 7]: (3.7%)
Dizziness related to the labelled drug(s), patients [1, 7]: 1
Dysphonia related to the labelled drug(s) [1, 7]: (37.0%)
Dysphonia related to the labelled drug(s), patients [1, 7]: 10
Epistaxis related to the labelled drug(s) [1, 7]: (25.9%)
Epistaxis related to the labelled drug(s), patients [1, 7]: 7
Fall related to the labelled drug(s) [1, 7]: (0.0%)
Fall related to the labelled drug(s), patients [1, 7]: 0
Fatigue related to the labelled drug(s) [1, 7]: (66.7%)
Fatigue related to the labelled drug(s), patients [1, 7]: 18
Hallucination related to the labelled drug(s) [1, 7]: (0.0%)
Hallucination related to the labelled drug(s), patients [1, 7]: 0
Headache related to the labelled drug(s) [1, 7]: (22.2%)
Headache related to the labelled drug(s), patients [1, 7]: 6
Hypertension related to the labelled drug(s) [1, 7]: (40.7%)
Infusion site pain related to the labelled drug(s) [1, 7]: (3.7%)
Infusion site pain related to the labelled drug(s), patients [1, 7]: 1
Muscular weakness related to the labelled drug(s) [1, 7]: (3.7%)
Muscular weakness related to the labelled drug(s), patients [1, 7]: 1
Nausea related to the labelled drug(s) [1, 7]: (7.4%)
Platelet count decreased related to the labelled drug(s) [1, 7]: (11.1%)
Platelet count decreased related to the labelled drug(s), patients [1, 7]: 3
Stomatitis related to the labelled drug(s) [1, 7]: (7.4%)
Upper-airway cough syndrome related to the labelled drug(s) [1, 7]: (18.5%)
Upper-airway cough syndrome related to the labelled drug(s), patients [1, 7]: 5
Vomiting related to the labelled drug(s) [1, 7]: (14.8%)
mean Cmin ([2]; Day 15): 95 µg/mL
Cmax D 1 ([2]; MRZ 0.7 mg/m^2 cohort): 193 ± 8 (2) μg/mL
Cmax D 15 ([2]; MRZ 0.7 mg/m^2 cohort): 402 ± 123 (3) μg/mL
Cmin D 15 ([2]; MRZ 0.7 mg/m^2 cohort): 81.1 ± 17.4 (2) μg/mL
Cmax D 1 ([2]; MRZ 0.8 mg/m^2 cohort): 267 ± 13.3 (3) μg/mL
Cmax D 15 ([2]; MRZ 0.8 mg/m^2 cohort): 380 ± 56.5 (2) μg/mL
Cmin D 15 ([2]; MRZ 0.8 mg/m^2 cohort): 85.0 ± 9.87 (3) μg/mL
mean Cmax ([2]; all dose cohorts, Day 1, 10 mg/kg): 275 µg/mL
pharmacokinetic parameters ([2]; co-administration with marizomib): consistent with published parameters and not affected by co-administration
mean Cmax ([2]; second value printed for Day 1): 379 µg/mL
6 mo Overall Survival ([3]; Field (CABARET), All Pts): 61%
6 mo Progression Free Survival ([3]; Field (CABARET), All Pts): 18%
9 mo Overall Survival ([3]; Field (CABARET), All Pts): 39%
9 mo Progression Free Survival ([3]; Field (CABARET), All Pts): 6%
12 Mo. Overall Survival ([3]; Field (CABARET), All Pts): 24%
6 mo Overall Survival [3, 8]: 18%
9 mo Overall Survival [3, 8]: 30%
9 mo Progression Free Survival [3, 8]: 0%
12 Mo. Overall Survival [3, 8]: 10%
12 Mo. Progression Free Survival [3, 8]: 0%
6 mo Overall Survival [3, 9]: 58%
6 mo Progression Free Survival [3, 9]: 38%
9 mo Overall Survival [3, 9]: 40%
9 mo Progression Free Survival [3, 9]: 22%
12 Mo. Overall Survival [3, 9]: 24%
12 Mo. Progression Free Survival [3, 9]: 10%
6 mo Overall Survival [3, 10]: 25%
6 mo Progression Free Survival [3, 10]: 10%
9 mo Progression Free Survival [3, 10]: 0%
12 Mo. Progression Free Survival [3, 10]: 0%
6 mo Overall Survival ([3]; Taal (BELOB), All Pts): 62%
6 mo Progression Free Survival ([3]; Taal (BELOB), All Pts): 16%
9 mo Overall Survival ([3]; Taal (BELOB), All Pts): 45%
9 mo Progression Free Survival ([3]; Taal (BELOB), All Pts): 8%
12 Mo. Overall Survival ([3]; Taal (BELOB), All Pts): 26%
6 mo Overall Survival ([3]; Taal (BELOB), Methylated): 83%
6 mo Progression Free Survival ([3]; Taal (BELOB), Methylated): 33%
9 mo Overall Survival ([3]; Taal (BELOB), Methylated): 67%
9 mo Progression Free Survival ([3]; Taal (BELOB), Methylated): 22%
12 Mo. Overall Survival ([3]; Taal (BELOB), Methylated): 56%
6 mo Overall Survival ([3]; Taal (BELOB), Unmethylated): 50%
6 mo Progression Free Survival ([3]; Taal (BELOB), Unmethylated): 8%
9 mo Progression Free Survival ([3]; Taal (BELOB), Unmethylated): 0%
12 Mo. Overall Survival ([3]; Taal (BELOB), Unmethylated): 8%
12 Mo. Progression Free Survival ([3]; Taal (BELOB), Unmethylated): 0%
6 mo Progression Free Survival ([3]; Wick (EORTC 26101 P2), All Pts): 14%
9 mo Progression Free Survival ([3]; Wick (EORTC 26101 P2), All Pts): 9%
12 Mo. Progression Free Survival ([3]; Wick (EORTC 26101 P2), All Pts): 8%
6 mo Progression Free Survival [3, 11]: 25%
9 mo Progression Free Survival [3, 11]: 9%
12 Mo. Progression Free Survival [3, 11]: 9%
6 mo Progression Free Survival [3, 12]: 10%
9 mo Progression Free Survival [3, 12]: 10%
12 Mo. Progression Free Survival [3, 12]: 10%
6-month progression-free survival (PFS) rate ([3]; recurrent G4 MG, BEV alone): ~43%
median overall survival (OS) ([3]; recurrent G4 MG, BEV alone): ~9 months
Cmax [4]: 284 µg/mL
